Laboratory results: patent publication US12226490B2, “Anti-ROR1 antibody conjugates, compositions comprising anti ROR1 antibody conjugates, and methods of making and using anti-ROR1 antibody conjugates preliminary class” (Sutro Biopharma, Inc., priority 2022, dated 2025)
Positions count from the first letter of the chain named.

B1: SRP2196-A09 (antibody, V domains shown)
VH: EVQLVESGGGLVQPGGSLRLSCAASGFNITGYYIHWVRQAPGKGLEWVGQISPNSGATHYADSVKGRFTISADTSKNTAYLQMNSLRAEDTAVYYCARDSRRYIRSWDYWGQGTLVTVSS
VL: QAVVTQESALTTSPGETVTLTCRSSTGAVTTSNYANWVQEKPDHLFTGLIGGTNKRAPGVPARFSGSLIGDKAALTITGAQTEDEAIYFCALWYSNLWVFGGGTKLTVL
B2: SRP2196-C03 (antibody, V domains shown)
VH: B1 VH with A57S, H59Y, Y60S, N84S, I104V, R105L
VL: B1 VL
B3: SRP2196-B03 (antibody, V domains shown)
VH: B1 VH with V12A, Q50Y, I104V, S106P, W107F
VL: B1 VL
B4: SRP2196-B01 (antibody, V domains shown)
VH: B1 VH with A57Y, H59Y, A79T, I104V
VL: B1 VL
B5: SRP2196-C04 (antibody, V domains shown)
VH: B1 VH with Q50F, S52A, N54L, A57S, Y60N, D99E, I104V, R105N, S106P
VL: B1 VL
B6: SRP2196-B04 (antibody, V domains shown)
VH: B1 VH with G31E, Q50Y, H59Y, Y60Q, I104V, S106G
VL: B1 VL
B7: SRP2196-A11 (antibody, V domains shown)
VH: B1 VH with A57T, H59Y, Y60D, I104V, S106G
VL: B1 VL
B8: SRP2196-C01 (antibody, V domains shown)
VH: B1 VH with T30I, Q50S, S52T, N54L, H59S, Y60K
VL: B1 VL
B9: SRP2196-B08 (antibody, V domains shown)
VH: B1 VH with A57Y, H59Y, Y60L, I104V, S106G
VL: B1 VL
B10: SRP2196-B10 (antibody, V domains shown)
VH: B1 VH with Q50S, S52T, N54L, H59S, Y60K
VL: B1 VL
B11: SRP2196-B11 (antibody, V domains shown)
VH: B1 VH with K43R, A57Y, H59Y
VL: B1 VL
B12: SRP2196-C02 (antibody, V domains shown)
VH: B1 VH with Y33H, Q50F, A57W, H59Y, Y60S, I104V, S106P, W107F
VL: B1 VL
B13: SRP2196-B09 (antibody, V domains shown)
VH: B1 VH with G15E, G31E, Q50Y, A57S, H59Y, I104V
VL: B1 VL
B14: SRP2196-B02 (antibody, V domains shown)
VH: B1 VH with G31Q, Q50Y, A57Q, H59Y, Y60D, I104V
VL: B1 VL
B15: SRP2196-A10 (antibody, V domains shown)
VH: B1 VH with Q50Y, T74I, Y94H, I104V
VL: B1 VL
B16: SRP2196-B06 (antibody, V domains shown)
VH: B1 VH with A57S, H59Y, Y60S, I104V, R105L
VL: B1 VL

Key:
[1] = Differential scanning fluorimetry (protein thermal shift; TM1 Fc, TM2 Fab); assay type: physicochemical; conditions: melting temperature of the Fab domain; Table 11
Protocol: A protein thermal shift assay was carried out by mixing the protein to be assayed with an environmentally sensitive dye (SYPRO Orange, Life Technologies Cat #S-6650) in a phosphate buffered solution (PBS), and monitoring the fluorescence of the mixture in real time as it underwent controlled thermal denaturation. Protein solutions between 0.2-2 mg/mL were mixed at a 1-1 volumetric ratio with a 1-500 PBS-diluted solution of SYPRO Orange (SYPRO Orange stock dye is 5000× in DMSO). 10 μL aliquots of the protein-dye mixture were dispensed in quadruplicate in a 384-well microplate (Bio-Rad Cat #MSP-3852), and the plate was sealed with an optically clear sealing film (Bio-Rad Cat #MSB-1001) and placed in a 384-well plate real-time thermocycler (Bio-Rad CFX384 Real Time System). The protein-dye mixture was heated from 25° C. to 95° C., at increments of 0.1° C. per cycle (˜1.5° C. per minute), allowing 3 seconds of equilibration at each temperature before taking a fluorescence measurement. At the end of the experiment, the transition melting temperatures (TM1 and TM2) were determined using the Bio-Rad CFX manager software. TM1 represents the melting temperature of the Fc domain. TM2 represents the melting temperature of the Fab domain.
For the thermal stability of an antibody, the first melting peak (Tm1) coincides with the unfolding of the CH2 domain (FC stability), while the second melting peak (Tm2) occurs upon unfolding of the Fab domain.

human ROR1-Fz = biological target: T1, human ROR1-Fz (Homo sapiens, UniProt Q01973); assay: Biacore off-rate and kinetic analysis, ROR1 frizzled domain; assay type: binding; conditions: Table 11 (SP34 light chain)
T1 construct: Frizzled (Fz, residues 165-305); HIS6 (C); purchased Acro Biosystems; host or cells: HEK293
T1 sequence (Q01973 165-305): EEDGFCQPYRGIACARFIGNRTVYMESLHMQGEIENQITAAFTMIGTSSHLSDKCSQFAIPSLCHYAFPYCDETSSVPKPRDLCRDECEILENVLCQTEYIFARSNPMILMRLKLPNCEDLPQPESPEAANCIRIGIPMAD
Protocol: Anti-Fc polyclonal antibodies were immobilized onto a CM5 chip (GE Life Sciences) using amine coupling chemistry (from Amine Coupling Kit, GE Life Sciences). The immobilization steps were carried out at a flow rate of 25 μL/min in 1×HBS-EP+ buffer (GE Life Sciences; 10× Stock diluted before use). The sensor surfaces were activated for 7 min with a mixture of NHS (0.05 M) and EDC (0.2 M). The Anti-Fc antibodies were injected over all 4 flow cells at a concentration of 25 ug/ml in 10 mM sodium acetate, pH 4.5, for 7 min. Ethanolamine (1 M, pH 8.5) was injected for 7 min to block any remaining activated groups. An average of 12,000 response units (RU) of capture antibody was immobilized on each flow cell.
Off-rate and kinetic binding experiments were performed at 25° C. using 1×HBS-EP+ buffer. Test and control antibodies were injected over the anti-Fc surface at concentrations of 5-10 μg/mL for 12 seconds at a flow rate of 10 μL/min on flow cells 2, 3 and 4, followed by a buffer wash for 30 seconds at the same flow rate. Kinetic characterization of antibody samples was carried out with a range of antigen concentrations from 1-100 nM and 1 injection of 0 nM antigen (for example, 100, 50, 25, 6.25, 1.56 and 0 nM). After capturing ligand (antibody) on the anti-Fc surface, the analyte (hROR1, Fz or Kr domains, Acro Biosystems, Delaware) was bound for 180 seconds, followed by a 600 second dissociation phase at a flow rate of 50 μL/min. Between each ligand capture and analyte binding cycle, regeneration was carried out using 2 injections of 10 mM Glycine pH 2.0 for 30 seconds at 30 μL/min, followed by a 30 second buffer wash step.
The data was fit with the Biacore T200 Evaluation software, using a 1-1 Langmuir binding model. KD (affinity, nM) was determined as a ratio of the kinetic rate constants calculated from the fits of the association and dissociation phases.
For anti-CD3-LC-containing IgGs that had detectable ROR1-binding in ELISA (1944-A07 and 1987-C05 variants), those antibodies were further tested for binding by surface plasmon resonance (SPR). Binding kinetics were assessed to the ROR1-frizzled domain (hROR1-Fz) or the ROR1-extracellular domain (hROR1) for 1944-A07 and 1987-C05 variants, respectively. Briefly, anti-ROR1 antibodies were captured via anti-human Fc polyclonal antibodies immobilized to a CM5 chip, and ROR1 recombinant proteins were flowed across the surface to assess binding kinetics. hROR1 or hROR1-Fz domain (Acro Biosystems, Delaware) binding was tested at 100, 50, 25, 6.25, 1.5625 nM. The data was fit with the Biacore™ T200 Evaluation software, using a 1-1 Langmuir binding model. KD (affinity, nM) was determined as a ratio of the kinetic rate constants calculated from the fits of the association and dissociation phases.

Molecule | TM2 [1] [°C] | Biacore human ROR1-Fz ka (human ROR1-Fz) [M⁻¹ s⁻¹] | Biacore human ROR1-Fz kd (human ROR1-Fz) [s⁻¹]
B1 | 75 | 150000 | 0.000568
B2 | 69 | 143000 | 0.000461
B3 | 71 | 124000 | 0.000945
B4 | 75 | 131000 | 0.000401
B5 | 70 | 131000 | 0.000704
B6 | 72 | 127000 | 0.000352
B7 | 73 | 191000 | 0.000792
B8 | 70 | 125000 | 0.000457
B9 | 75 | 156000 | 0.000488
B10 | 70 | 128000 | 0.000334
B11 | 74 | 137000 | 0.000597
B12 | 67 | 119000 | 0.00036
B13 | 72 | 130000 | 0.000427
B14 | 69 | 163000 | 0.000227
B15 | 68 | 172000 | 0.000479
B16 | 70 | 142000 | 0.000423
